Measurements: US20130230510A1
Each block holds one molecule with its values, some of them ahead of it.

Legend:
[1] = target: CD123 (human IL-3Rα) (human) (UniProt P26951); assay: method not stated (indicative KD)
[2] = target: CD123 (human IL-3Rα) on cells (human) (UniProt P26951); assay: cell-based or functional assay
[3] = target: CD123 (human IL-3Rα) (human) (UniProt P26951); assay: method not stated
[4] = target: CD123 (human IL-3Rα) on cells (human) (UniProt P26951); assay: cell-based or functional assay; remark: listed apart in the source

Molecule: defucosylated hCSL360 produced by kifunensine treatment (hCSL360kif) (antibody)
- antibody concentration for almost complete ADCC lysis of Raji-CD123 high cells, E:T 50:1 [2]: 1 ng/mL

Molecule: humanised CSL360S239D/A330L/I332E (hCSL360Fc3) (from UniProt P01857 1-330) (antibody)
- antibody concentration for almost complete ADCC lysis of Raji-CD123 high cells, E:T 50:1 [2]: 1 ng/mL

Molecule: humanised variant of CSL360 (hCSL360) (antibody)
- fold decrease in affinity compared to the chimeric MAb (CSL360) [3]: 10 fold
- Kd [1]: 12.8 nM
- IC50, IL-3-dependent TF-1 cell proliferation [2]: 19 nM

The remaining lines, values ahead:

- Kd [1]: 1.06 nM
- % CD107a positive NK cells, RMH003 AML target cells, CSL360 10 µg/mL (FIG. 8B) [2]: 39%
- % lysis, 51Cr release ADCC, CTLEN cells, E:T 10:1 [2]: 10%
- % lysis, 51Cr release ADCC, CTLEN cells, E:T 100:1 [2]: 51%
- % lysis, 51Cr release ADCC, SL (AML) cells, E:T 10:1 [2]: 2.4%
- % lysis, 51Cr release ADCC, SL (AML) cells, E:T 100:1 [2]: 15%
- % lysis, calcein release ADCC, RBH013 (AML), E:T 10:1 [2]: 0%
- % lysis, calcein release ADCC, RBH013 (AML), E:T 100:1 [2]: 0%
- % lysis, calcein release ADCC, RMH003 (AML), E:T 10:1 [2]: 39.2%
- % lysis, calcein release ADCC, RMH003 (AML), E:T 100:1 [2]: 82.6%
- % lysis, calcein release ADCC, RMH008 (AML), E:T 10:1 [2]: 59.5%
- % lysis, calcein release ADCC, RMH008 (AML), E:T 100:1 [2]: 100%
- % lysis, calcein release ADCC, RMH009 (B-ALL), E:T 10:1 [2]: 0%
- % lysis, calcein release ADCC, RMH009 (B-ALL), E:T 100:1 [2]: 0%
- % lysis, calcein release ADCC, RMH009* (B-ALL), repeat with other PBMC, E:T 10:1 [2]: 0%
- % lysis, calcein release ADCC, RMH009* (B-ALL), repeat with other PBMC, E:T 100:1 [2]: 0%
- % lysis, calcein release ADCC, RMH010 (AML), E:T 10:1 [2]: 4%
- % lysis, calcein release ADCC, RMH010 (AML), E:T 100:1 [2]: 0%
- % of NK cells expressing CD107a, E:T 1:1, target CTLEN-001 [2]: 6.7%
- % of NK cells expressing CD107a, E:T 1:1, target CTLEN-008 [2]: 24%
- % of NK cells expressing CD107a, E:T 1:1, target CTLEN-010 [2]: 5.7%
- % of NK cells expressing CD107a, E:T 1:1, target CTLEN-011-PBMC-1 [2]: 8.1%
- % of NK cells expressing CD107a, E:T 1:1, target CTLEN-011-PBMC-2 [2]: 10.5%
- % of NK cells expressing CD107a, E:T 1:1, target EL4hi-002 [2]: 2.9%
- % of NK cells expressing CD107a, E:T 1:1, target EL4hi-003 [2]: 15%
- % of NK cells expressing CD107a, E:T 1:1, target EL4hi-004 [2]: 16%
- % of NK cells expressing CD107a, E:T 1:1, target EL4hi-005 [2]: 21%
- % of NK cells expressing CD107a, E:T 1:1, target EL4hi-010 [2]: 34%
- % of NK cells expressing CD107a, E:T 1:1, target EL4hi-011-PBMC-1 [2]: 15.5%
- % of NK cells expressing CD107a, E:T 1:1, target EL4hi-011-PBMC-2 [2]: 23.5%
- % of NK cells expressing CD107a, E:T 1:1, target EL4hi/lo-001 [2]: 2.8%
- % of NK cells expressing CD107a, E:T 1:1, target RBH009^a (AML) [2]: 8.5%
- % of NK cells expressing CD107a, E:T 1:1, target RBH009^b (AML) [2]: 8%
- % of NK cells expressing CD107a, E:T 1:1, target RBH013^a (AML) [2]: 10%
- % of NK cells expressing CD107a, E:T 1:1, target RBH013^b (AML) [2]: 22%
- % of NK cells expressing CD107a, E:T 1:1, target RMH003^a (AML) [2]: 30%
- % of NK cells expressing CD107a, E:T 1:1, target RMH003^b (AML) [2]: 33%
- % of NK cells expressing CD107a, E:T 1:1, target RMH003^c (AML) [2]: 38%
- % of NK cells expressing CD107a, E:T 1:1, target RMH007 (B-ALL) [2]: 16.4%
- % of NK cells expressing CD107a, E:T 1:1, target RMH008^a (AML) [2]: 9%
- % of NK cells expressing CD107a, E:T 1:1, target RMH008^b (AML) [2]: 16%
- % of NK cells expressing CD107a, E:T 1:1, target RMH008^c (AML) [2]: 8.7%
- % of NK cells expressing CD107a, E:T 1:1, target RMH009^a (B-ALL) [2]: 3%
- % of NK cells expressing CD107a, E:T 1:1, target RMH009^b (B-ALL) [2]: 1.7%
- % of NK cells expressing CD107a, E:T 1:1, target RMH009^c (B-ALL) [2]: 7.4%
- % of NK cells expressing CD107a, E:T 1:1, target RMH010^a (AML) [2]: 14%
- % of NK cells expressing CD107a, E:T 1:1, target RMH010^b (AML) [2]: 25.5%
- % of NK cells expressing CD107a, E:T 1:1, target RMH011 (AML) [2]: 6.6%
- % of NK cells expressing CD107a, E:T 1:1, target TF-1 (GM-CSF) [2]: 0.7%
- % of NK cells expressing CD107a, E:T 1:1, target TF-1(IL-3) [2]: 1.45%
- IC50, IL-3-dependent TF-1 cell proliferation [2]: 5 nM
Molecule: chimeric antibody CSL360

- IL-3 (1 nM)-stimulated CD131 tyrosine phosphorylation, STAT-5 and Akt activation in TF-1 cells; 7G3 concentration that blocks completely [4]: 100 nM
B1: monoclonal antibody (MAb) 7G3 (antibody, from another filing, V domains shown)
VH: EVQLQQSGPELVKPGASVKMSCKASGYTFTDYYMKWVKQSHGKSLEWIGDIIPSNGATFYNQKFKGKATLTVDRSSSTAYMHLNSLTSEDSAVYYCTRSHLLRASWFAYWGQGTLVTVSA
VL: DFVMTQSPSSLTVTAGEKVTMSCKSSQSLLNSGNQKNYLTWYLQKPGQPPKLLIYWASTRESGVPDRFTGSGSGTDFTLTISSVQAEDLAVYYCQNDYSYPYTFGGGTKLEIKR
